Reference: article PMC2834951 (Nature structural & molecular biology, 2009)

T1: human Ubc13 (human, UniProt P61088 1-152)
T1 sequence (looked up): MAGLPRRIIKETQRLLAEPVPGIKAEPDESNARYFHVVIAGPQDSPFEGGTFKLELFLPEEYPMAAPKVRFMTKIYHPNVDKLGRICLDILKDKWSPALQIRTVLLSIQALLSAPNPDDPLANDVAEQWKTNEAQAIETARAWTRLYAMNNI


Assays:
human Ubc13 = target: T1, human Ubc13; assay: SEC
SAXS = target: the molecule itself; assay: SAXS

binding result (human Ubc13) | Binder | stoichiometry N (SAXS)
binds | human TRAF6 RZ12 (residues 50-187) (domain or fragment, UniProt Q9Y4K3 50-187, looked up) MEEIQGYDVEFDPPLESKYECPICLMALREAVQTPCGHRFCKACIIKSIRDAGHKCPVDNEILLENQLFPDNFAKREILSLMVKCPNEGCLHKMELRHLEDHQAHCEFALMDCPQCQRPFQKFHINIHILKDCPRRQV | –
– | human TRAF6 RZ123 (residues 50-211), wild type (domain or fragment, UniProt Q9Y4K3 50-211, looked up) MEEIQGYDVEFDPPLESKYECPICLMALREAVQTPCGHRFCKACIIKSIRDAGHKCPVDNEILLENQLFPDNFAKREILSLMVKCPNEGCLHKMELRHLEDHQAHCEFALMDCPQCQRPFQKFHINIHILKDCPRRQVSCDNCAASMAFEDKEIHDQNCPLA | 2
binds | human TRAF6 RZ1 (residues 50-159) (domain or fragment, UniProt Q9Y4K3 50-159, looked up) MEEIQGYDVEFDPPLESKYECPICLMALREAVQTPCGHRFCKACIIKSIRDAGHKCPVDNEILLENQLFPDNFAKREILSLMVKCPNEGCLHKMELRHLEDHQAHCEFAL | –
